Results as given in patent publication EP0952217A2.

Target: SCCA1 recombinant protein expressed on transfected HepG2 and CHO cells (human) (UniProt P29508)
Assay: virus-to-cell binding assay: transfected cells incubated 20 min with HBV-positive serum and washed, cell-associated HBV-DNA measured by hybrid capture

Sequence of UniProt P29508 (P29508 whole entry T357A): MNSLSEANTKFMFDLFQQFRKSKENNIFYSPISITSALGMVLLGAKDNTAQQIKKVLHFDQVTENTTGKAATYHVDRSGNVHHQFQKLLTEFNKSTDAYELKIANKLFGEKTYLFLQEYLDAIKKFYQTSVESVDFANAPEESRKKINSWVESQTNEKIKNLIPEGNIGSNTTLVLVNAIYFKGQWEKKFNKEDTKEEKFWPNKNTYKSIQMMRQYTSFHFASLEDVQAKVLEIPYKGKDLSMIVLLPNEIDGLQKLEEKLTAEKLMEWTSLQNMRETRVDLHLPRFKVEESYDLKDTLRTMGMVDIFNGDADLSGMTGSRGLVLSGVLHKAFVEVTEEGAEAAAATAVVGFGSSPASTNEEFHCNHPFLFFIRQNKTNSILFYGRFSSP

HBV viral particles from HBV-DNA positive serum of patients with acute hepatitis B
HBV-DNA value, fold over the control cell lines: > 8 .fold
